Source: publication PMC5074805

Experiments:
[1] = target: M4N-His (M4N with the stop helix extended by a C-terminal His6-tag); assay: SEC-MALS; static light scattering: Superdex S200 gel size exclusion column coupled to a miniDAWN Tristar laser photometer and a differential refractometer; buffer A (50 mM Tris pH 8, 150 mM NaCl)
[2] = target: M4NΔC (M4N without stop helix); assay: as above

Substance	stoichiometry N [1]	stoichiometry N [2]
M4N-His (M4N with the stop helix extended by a C-terminal His6-tag)	2	
M4NΔC (M4N without stop helix)		2
